Measurements as given in patent US20190071480A1 (Biogen, published 2019).
Bridges are numbered along the chain shown (N, C = ends).

Columns and labels:
[1] = biological target: T1, extracellular domain of activin receptor type IIB (ActRIIBecd), biotinylated (Homo sapiens (Human), UniProt Q13705 27-117, amino-biotinylated with amine-PEG3-Biotin); test: BIAcore SPR as Example 5 (method not restated); SD ±1.32 nM
T1 construct: immobilised on a streptavidin-coated sensor chip; also called biotinylated ActRIIBecd; extracellular domain of ActRIIB
T1 sequence: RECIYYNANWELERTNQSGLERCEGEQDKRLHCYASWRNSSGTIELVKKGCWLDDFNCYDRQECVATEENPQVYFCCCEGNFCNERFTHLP
Procedure: (§1) Biosensor experiments. In one embodiment, experiments were performed on a BIAcore™ T100/T200 instrument (Pharmacia Biosensor AB) in the multichannel mode (serial flow path involving flow cells 1+2+3+4). Flow rate was 10 μl/min; temperature was 25° C.; and data were recorded at 2.5 points/s. All four segments of a sensor chip CMS were coated with streptavidin (Sigma) to a density of 2000 pg/mm² (2000 resonance units) by the aminocoupling procedure. ActRIIBecd (10 mg) and amine-PEG3-Biotin (10 mg, Pierce, Rockford, Ill.) were dissolved in 200 μl H₂O and 10 mg NaCNBH₃ was added to prepare biotinylated ActRIIBecd. The reaction mixture was heated at 70° C. for 24 h, after that a further 10 mg NaCNBH₃ was added and the reaction was heated at 70° C. for another 24 h. After cooling to room temperature, the mixture was desalted with the spin column (3,000 molecular weight cut off (MWCO)). […] Sensograms were recorded during flow of the analyte (the ActRIIBecd-associated polypeptides (i.e., domains) as previously described) first through flow cell 1 (control) then through flow cell 2 (biotinylated ActRIIBecd). […] The sensograms obtained at 1.11, 3.33, 10, 30, and 90 nM analyte were evaluated for equilibrium binding, association rate, and dissociation rate by using the programs supplied with the instrument (BIA evaluation 2.1; Software Handbook. 1995; Pharmacia Biosensor AB).

[2] = biological target: T1, extracellular domain of activin …; test: Mean KD column of Table 5; method not restated (BIAcore as Example 5); species also listed in Table 4
In short: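 Biotinylated ActRIIBecd was captured on a streptavidin-coated sensor chip at 50-250 RU, and the polypeptides, diluted in glycine buffer pH 4.5, were injected at 1.11, 3.33, 10, 30 and 90 nM. Runs were at 25° C and 10 μl/min, with reference-cell sensograms subtracted before fitting equilibrium binding, association and dissociation rates.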

[3] = biological target: T1, extracellular domain of activin …; test: BIAcore SPR as Example 5 (method not restated); SD ±2.71 nM
Procedure: as §1

[4] = biological target: T1, extracellular domain of activin …; test: BIAcore SPR as Example 5 (method not restated); SD ±2.08 nM
Procedure: as §1

[5] = biological target: T1, extracellular domain of activin …; test: BIAcore SPR as Example 5 (method not restated); SD ±1.12 nM
Procedure: as §1

[6] = biological target: T1, extracellular domain of activin …; test: BIAcore SPR as Example 5 (method not restated); SD ±1.03 nM
Procedure: as §1

[7] = biological target: T1, extracellular domain of activin …; test: BIAcore SPR as Example 5 (method not restated); SD ±0.96 nM
Procedure: as §1

[8] = biological target: T1, extracellular domain of activin …; test: BIAcore SPR as Example 5 (method not restated); SD ±3.30 nM
Procedure: as §1

[9] = biological target: T1, extracellular domain of activin …; test: BIAcore SPR as Example 5 (method not restated); SD ±1.27 nM
Procedure: as §1

[10] = biological target: T1, extracellular domain of activin …; test: BIAcore SPR as Example 5 (method not restated); SD ±2.88 nM
Procedure: as §1

[11] = biological target: T1, extracellular domain of activin …; test: BIAcore SPR as Example 5 (method not restated); SD ±3.22 nM
Procedure: as §1

[12] = biological target: T1, extracellular domain of activin …; test: BIAcore SPR as Example 5 (method not restated); SD ±3.01 nM
Procedure: as §1

[13] = biological target: T1, extracellular domain of activin …; test: BIAcore SPR as Example 5 (method not restated); SD ±2.14 nM
Procedure: as §1

[14] = biological target: T1, extracellular domain of activin …; test: BIAcore SPR as Example 5 (method not restated); SD ±2.09 nM
Procedure: as §1

[15] = biological target: T1, extracellular domain of activin …; test: BIAcore SPR as Example 5 (method not restated); SD ±2.31 nM
Procedure: as §1

[16] = biological target: T1, extracellular domain of activin …; test: BIAcore SPR, biotinylated ActRIIBecd on chip; SD ±12.79 nM
Procedure: as §1

[17] = biological target: T1, extracellular domain of activin …; test: BIAcore SPR as Example 5 (method not restated); SD ±2.39 nM
Procedure: as §1

[18] = biological target: T1, extracellular domain of activin …; test: BIAcore SPR as Example 5 (method not restated); SD ±1.65 nM
Procedure: as §1

[19] = biological target: T1, extracellular domain of activin …; test: BIAcore SPR as Example 5 (method not restated); SD ±2.05 nM
Procedure: as §1

[20] = biological target: T1, extracellular domain of activin …; test: BIAcore SPR, biotinylated ActRIIBecd on chip; SD ±24.42 nM
Procedure: as §1

B1: SEQ ID NO: 268, cysteine pairs C23-C27^a, C65-C65^b, C79-C112^a, C80-C114^a (designed binder)
chain: VDFSDVGWNDWIVAPPGYHAFYCHGECPFPLADHLNSTNHAIVQTLVNSVAQAKHKQRKRLKSSCKRHPLYNSKIPKACCVPTELSAISMLYLDENEKVVLKNYQDMVVEGCGCR
modifications: disulfides C23-C27 (intra), C65-C65 (inter), C79-C112 (intra), C80-C114 (intra)
notes: homodimer by intermolecular disulfide
Kd [1]: 7.21 nM
Kd [2]: 7.21 nM

B2: SEQ ID NO: 268, cysteine pairs C23-C79^a (designed binder)
chain: B1 chain
modifications: disulfides C23-C79 (intra)
Kd [3]: 29.6 nM
Kd [2]: 29.6 nM

B3: SEQ ID NO: 268, cysteine pairs C23-C27^a, C65-C65^b, C79-C114^a, C80-C112^a (designed binder)
chain: B1 chain
modifications: disulfides C23-C27 (intra), C65-C65 (inter), C79-C114 (intra), C80-C112 (intra)
notes: as for B1
Kd [4]: 8.74 nM
Kd [2]: 8.74 nM

B4: SEQ ID NO: 260, cysteine pairs C15-C80^a, C44-C112^a, C48-C114^a, C79-C79^b (designed binder)
chain: AQAKHKQRKRLKSSCKRHPLYVDFSDVGWNDWIVAPPGYHAFYCHGECPFPLADHLNSTNHAIVQTLVNSVNSKIPKACCVPTELSAISMLYLDENEKVVLKNYQDMVVEGCGCR
modifications: disulfides C15-C80 (intra), C44-C112 (intra), C48-C114 (intra), C79-C79 (inter)
notes: as for B1
Kd [5]: 6.56 nM
Kd [2]: 6.56 nM

B5: SEQ ID NO: 260, cysteine pairs C15-C15^b, C79-C114^a, C80-C112^a, C44-C48^a (designed binder)
chain: B4 chain
modifications: disulfides C15-C15 (inter), C79-C114 (intra), C80-C112 (intra), C44-C48 (intra)
notes: as for B1
Kd [6]: 7.64 nM
Kd [2]: 7.64 nM

B6: SEQ ID NO: 260, cysteine pairs C80-C114^b, C79-C112^b, C44-C48^a (designed binder)
chain: B4 chain
modifications: disulfides C80-C114 (inter), C79-C112 (inter), C44-C48 (intra)
notes: as for B1
Kd [7]: 6.89 nM
Kd [2]: 6.89 nM

B7: SEQ ID NO: 236, cysteine pairs C41-C59^a (designed binder)
chain: NSKDPKACCVPTELSAPSPLYLDENEKPVLKNYQDMVVHGCGCRGQAKRKGYKRLKSSCKRHPLY
modifications: disulfide 41-59
Kd [8]: 49.5 nM
Kd [2]: 49.5 nM

B8: SEQ ID NO: 236, cysteine pairs C59-C59^b, C8-C43^a, C9-C41^a (designed binder)
chain: B7 chain
modifications: disulfide 9-41, 8-43; also: homodimer via intermolecular C59-C59 disulfide
notes: as for B1
Kd [9]: 17.1 nM
Kd [2]: 17.1 nM

B9: SEQ ID NO: 224, cysteine pairs C15-C44^a (designed binder)
chain: GQAKRKGYKRLKSSCKRHPLYVDFKDVGWNDHAVAPPGYHAFYCHGECPFPLADHLNSDNHAIVQTKVNSV
modifications: disulfides C15-C44 (intra)
Kd [10]: 48.9 nM
Kd [2]: 48.9 nM

B10: SEQ ID NO: 248, cysteine pairs C41-C43^a (designed binder)
chain: NSKDPKACCVPTELSAPSPLYLDENEKPVLKNYQDMVVHGCGCRVDFKDVGWNDHAVAPPGYHAFYCHGECPFPLADHLNSDNHAIVQTKVNSV
modifications: disulfides C41-C43 (intra)
Kd [11]: 47.8 nM
Kd [2]: 47.8 nM

B11: SEQ ID NO: 248, cysteine pairs C67-C71^a, C8-C43^b, C9-C41^b (designed binder)
chain: B10 chain
modifications: disulfides C67-C71 (intra), C8-C43 (inter), C9-C41 (inter)
notes: as for B1
Kd [12]: 19.2 nM
Kd [2]: 19.2 nM

B12: SEQ ID NO: 248, cysteine pairs C67-C71^a, C8-C43^a, C9-C41^a (designed binder)
chain: B10 chain
modifications: disulfides C67-C71 (intra), C8-C43 (intra), C9-C41 (intra)
Kd [13]: 20 nM
Kd [2]: 20 nM

B13: SEQ ID NO: 242, cysteine pairs C15-C15^b, C29-C62^a, C30-C64^a (designed binder)
chain: GQAKRKGYKRLKSSCKRHPLYNSKDPKACCVPTELSAPSPLYLDENEKPVLKNYQDMVVHGCGCR
modifications: disulfide 29-62, 30-64; also: homodimer via intermolecular C15-C15 disulfide
notes: as for B1
Kd [14]: 17.8 nM
Kd [2]: 17.8 nM

B14: SEQ ID NO: 230, cysteine pairs C23-C27^a (designed binder)
chain: VDFKDVGWNDHAVAPPGYHAFYCHGECPFPLADHLNSDNHAIVQTKVNSVGQAKRKGYKRLKSSCKRHPLY
modifications: disulfides C23-C27 (intra)
Kd [15]: 17.9 nM
Kd [2]: 17.9 nM

VDFKDVGWNDHAVAPPGYHAFYCHGECPFPLADHLNSDNHAIVQTKVNSV [Clone No. 14 domain (ActRIIBecd-associated polypeptide)]
Kd [16]: 38.3 nM

B15: SEQ ID NO: 254, cysteine pairs C23-C27^a, C58-C93^a, C59-C91^a (designed binder)
chain: VDFKDVGWNDHAVAPPGYHAFYCHGECPFPLADHLNSDNHAIVQTKVNSVNSKDPKACCVPTELSAPSPLYLDENEKPVLKNYQDMVVHGCGCR
modifications: disulfides C23-C27 (intra), C58-C93 (intra), C59-C91 (intra)
Kd [17]: 19.1 nM
Kd [2]: 19.1 nM

B16: SEQ ID NO: 254, cysteine pairs C23-C27^a, C58-C91^b, C59-C93^b (designed binder)
chain: B15 chain
modifications: disulfides C23-C27 (intra), C58-C91 (inter), C59-C93 (inter)
notes: as for B1
Kd [18]: 18.7 nM
Kd [2]: 18.7 nM

B17: SEQ ID NO: 254, cysteine pairs C23-C58^a (designed binder)
chain: B15 chain
modifications: disulfides C23-C58 (intra)
Kd [19]: 44.4 nM
Kd [2]: 44.4 nM

AQAKHKQYKRLKSSCKRHPLY [Clone No. 12 domain (ActRIIBecd-associated polypeptide)]
Kd [20]: 58.4 nM
